# Data from publication PMC8945619.
# Molecular target: PECAM-1 (purified, immobilised on the sensor chip) (UniProt P16284)
# Experiment: SPR
# Chain of recombinant proteinase 3 (rPR3) (P24158 28-248): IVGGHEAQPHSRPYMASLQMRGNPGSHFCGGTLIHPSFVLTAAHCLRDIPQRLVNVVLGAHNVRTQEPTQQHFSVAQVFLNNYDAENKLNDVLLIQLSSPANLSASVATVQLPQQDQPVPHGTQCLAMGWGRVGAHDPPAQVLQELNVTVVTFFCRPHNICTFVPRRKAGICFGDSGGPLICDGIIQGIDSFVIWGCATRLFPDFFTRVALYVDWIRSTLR
# Chain of soluble CD177 in complex with proteinase 3 (sCD177/PR3) (Q8N6Q3 22-408): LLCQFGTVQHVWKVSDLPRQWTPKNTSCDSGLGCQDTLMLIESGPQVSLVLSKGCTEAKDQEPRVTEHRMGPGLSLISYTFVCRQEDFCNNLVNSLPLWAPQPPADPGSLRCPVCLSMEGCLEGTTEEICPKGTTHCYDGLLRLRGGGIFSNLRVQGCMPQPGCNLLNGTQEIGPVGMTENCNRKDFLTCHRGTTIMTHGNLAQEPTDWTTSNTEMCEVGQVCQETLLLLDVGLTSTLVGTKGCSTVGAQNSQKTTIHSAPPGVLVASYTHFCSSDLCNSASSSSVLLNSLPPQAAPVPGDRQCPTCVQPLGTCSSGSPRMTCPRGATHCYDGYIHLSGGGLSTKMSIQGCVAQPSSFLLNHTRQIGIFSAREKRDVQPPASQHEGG
# Chain of soluble CD177 in complex with proteinase 3 (sCD177/PR3) (P24158 28-248): as the sequence (P24158 28-248) above
row,Substance,Kd
1,recombinant proteinase 3 (rPR3) (from UniProt P24158 28-248) (enzyme),49.8 nM
2,soluble CD177 in complex with proteinase 3 (sCD177/PR3) (from UniProt Q8N6Q3 22-408; P24158 28-248),7.39 nM
